Assay [1] addresses Artificial Cell Surface (ACS). Briefly: ACS column adsorption of trypsin-digested dHSA, MALDI-TOF MS.
Assay [2] has as its target Artificial Cell Surface (ACS). Briefly: ACS column adsorption of Asp-N-digested dHSA, MALDI-TOF MS.
The next assay has as its target T1, His-tagged P3028 (PGE73) (human, also: His tag, length and end not given here).
T1 construct: the tag is put first here only for want of a statement; also called His-tag-P3028; not shown: His tag
T1 peptide: VFDEFKPLVEEPQNLIK
Briefly: PEPSCAN ELISA: peptide on chip, His-tagged P3028 in solution, anti-His mAb and rampo conjugate. (ELISA stands for enzyme-linked immunosorbent assay.)

Ends that are not written are not given here. Where only a bound is given, the exact number is not on record here.

Procedure for His-tagged P3028 (PGE73): After washing, the peroxidase substrate 2,2′-azine-di-3-ethylbenzthiazoline sulfonate (ABTS) and 2 μL of 3% H2O2 were added. The binding capacity of the mAb was measured as a color development at 405 nm (optical density, OD405). The color development was quantified with a charge-coupled device (CCD)—camera and an image processing system.
The OD405-values obtained by a CCD-camera was considered as raw data values (“rampo values,” “rampo units,” or “rampo scores”). […] First the CCD-camera made a picture of the card before peroxidase coloring and then again a picture after the peroxidase coloring. […] These values were copied into an excel file and labeled as a raw data file. […] Sometimes a well can contain an air-bubble resulting in a false-positive value. If manual inspection of the cards detect an air-bubble the value are set to 0 for well.

As to LCTVATLR [LCTVATLR (trypsin-generated albumin fragment, SEQ ID NO: 202)], in assay [1], the Percent Absorbed is 35%. Take DHVKLVNEVTEFAKTCVA [… (Asp-N-generated albumin fragment, SEQ ID NO: 217)]: the Percent Absorbed in assay [2] was found to be 100%. Regarding SLHTLFGDK [… (trypsin-generated albumin fragment, SEQ ID NO: 200)], the Percent Absorbed in assay [1] was determined as 36%. As for YLSVVLNQLCVLHEKTPVSDRVTKCCCTESLVNRRPFSALEV [… (Asp-N-generated albumin fragment, SEQ ID NO: 230)], the Percent Absorbed in assay [2] was 37%. Consider DDKETCFAEEGKKLVAASQAALGL [… (Asp-N-generated albumin fragment, SEQ ID NO: 218)], for which, in assay [2], the Percent Absorbed amounted to 100%. In the case of DSISSKLKECCEKPLLEKSHCIAEVEN [… (Asp-N-generated albumin fragment, SEQ ID NO: 221)], in assay [2], the Percent Absorbed is 65%.

As for LAKYICENQDSISSKLKECCEKPLLEKHCIAEVEN [… (Asp-N-generated albumin fragment, SEQ ID NO: 226)], the Percent Absorbed in assay [2] stood at 100%.

B1: SEQ ID NO 9 (peptide)
peptide: KKLDTFMVKLSLFTER
notes: on PEPSCAN card; also called P28R with M in position 7
Turning to B1, in the assay with His-tagged P3028 (PGE73), the rampo value was > 700 rampo units.

B2: SEQ ID NO 24 (peptide)
peptide: KKLDTFFVKLSLHTER
notes: on PEPSCAN card; also called P28R with H in position 13
Take B2: in the assay with His-tagged P3028 (PGE73), the rampo value is > 800 rampo units.

B3: SEQ ID NO 23 (peptide)
peptide: KKLDTFFVKLSLQTER
notes: on PEPSCAN card; also called P28R with Q in position 13
In the case of B3, in the assay with His-tagged P3028 (PGE73), the rampo value is > 800 rampo units.

B4: SEQ ID NO 16 (peptide)
peptide: KKLDTFFVKLMLFTER
notes: on PEPSCAN card; also called P28R with M in position 11
In the case of B4, the rampo value in the assay with His-tagged P3028 (PGE73) is > 700 rampo units.

B5: SEQ ID NO 25 (peptide)
peptide: KKLDTFFVKLSLNTER
notes: on PEPSCAN card; also called P28R with N in position 13
With B5, the rampo value in the assay with His-tagged P3028 (PGE73) was > 800 rampo units.

B6: SEQ ID NO 22 (peptide)
peptide: KKLDTFFVKLSLMTER
notes: on PEPSCAN card; also called P28R with M in position 13
On to B6, for which, in the assay with His-tagged P3028 (PGE73), the rampo value was > 800 rampo units.

B7: SEQ ID NO 15 (peptide)
peptide: KKLDTFFVKLQLFTER
notes: on PEPSCAN card; also called P28R with Q in position 11
As to B7, in the assay with His-tagged P3028 (PGE73), the rampo value was > 700 rampo units.

B8: SEQ ID NO 10 (peptide)
peptide: KKLDTFSVKLSLFTER
notes: on PEPSCAN card; also called P28R with S in position 7
On to B8, for which the rampo value in the assay with His-tagged P3028 (PGE73) was > 700 rampo units. As for DKLCTVATLRETYGEM [… (Asp-N-generated albumin fragment, SEQ ID NO: 222)], in assay [2], the Percent Absorbed came out at 65%. Regarding KLCTVATLRETYGEMADCCAKQEPERNECFLQHK [… (Asp-N-generated albumin fragment, SEQ ID NO: 224)], the Percent Absorbed in assay [2] was 100%. In turn, LGEENFKALVLIAFAQYLQQCPFEDHVKLVNEVTEFAKTCVA [… (Asp-N-generated albumin fragment, SEQ ID NO: 228)] showed a Percent Absorbed in assay [2] of 100%.

LKECCEKPLLEK [… (trypsin-generated albumin fragment, SEQ ID NO: 201)] had a Percent Absorbed in assay [1] of 36%. In assay [2], DETYVPKEFNAETFTHA [… (Asp-N-generated albumin fragment, SEQ ID NO: 220)] displayed a Percent Absorbed of 86%. Consider VFLGMFLYEYARRHPDYSVVLLLRLAKTYETTLEKCCAAA [… LEKCCAAA (Asp-N-generated albumin fragment, SEQ ID NO: 227)], for which, in assay [2], the Percent Absorbed was 100%. Still for that read-out and setting: with YSVVLLLRLAKTYETTLEKCCAAADPHECYAKVF [… (Asp-N-generated albumin fragment, SEQ ID NO: 223)] the figure was 100%; with ICTLSEKERQIKKQTALVELVKHKPKATKEQLKAVM [… (Asp-N-generated albumin fragment, SEQ ID NO: 225)], 100%; with RVTKCCTESLVNRRPCFSALEVDETYVPKEFNAETFTFHA [… (Asp-N-generated albumin fragment, SEQ ID NO: 229)], 100%.

DRVTKCCTESLVNRRPCFSALEV [… (Asp-N-generated albumin fragment, SEQ ID NO: 219)] gave a Percent Absorbed in assay [2] of 87%.

The record behind these values is patent publication US20180177842A1 (CANIMGUIDE THERAPEUTICS, published 2018).
